20 sequences from a protein production outcome set (Wang et al. 2014) can be followed below.

The data set is described as follows: label from the status in PepcDB records.
As to “MMYSKFISFLKQIPLPICGLILGLISLGNLLYSKGYPILGNSYDMLGLFLMFLILLKIVLAMKHTISTLNDPIVASVSPTFTMSLMVLSVFLKRLSGFSLLANVTWWTALILHLILMMYFIYLHVLPKELKIHDVYPSWFITFVGIGVISATSPDFGLEVGKVVVWITLLFYFILLPIVMHRVFILRKMHKSLLPLITIITAPGSLGLVGYLTVVEAKSKIFVIFLFILSQAIYFITLGLLTKLLRSAFYPSYAAFTFPLVISATAVNLTSKLSVFQFLNLELLANMEILIAIAIVTYVLIRYCIFLGSKLVQIMSEKYSPESI”, the protein production result was “failed”.

For the sequence “MMYVTVMPVFLAGVANRFFCKSDILAWTYQPIDGGFTMSDGKRILGANKTWKGFWGMITLTTFCQVIWGFILGIIPHLLTFSLVKSYHNDIFFNLFIGFLMGSAYVLCELPNSFIKRRFNVSPGQLASGNARWVFLFADQIVPFLGSIAVVAIFSPMTFSYYVGYVLLAAITLFAINSLILFVEMKRK”, the protein production result is listed as “failed”. Take “MNAAQVQALIRMGLPMAEDIDFRVERLDERHALARIPFHGKLVRPGGTLSGPTIMALADAAMYAVILGRLGAVEMAVTSNLNINFLSKPRPEDLLAEASILKLGRRQVVCEVGVFSQSNEEDLVAHVTGTYALPLLEHHHHHH”: the protein production entry is listed as “not failed”. As for “MNAARYAEHLAIFVEVARGGSFSAVARRHGATPSTITRKIDMLEEFVGTNLLVRSTRALLLTEAGETLFARGVSVLEALTDIHNEVIALSDSMYGTLRISCLPTFGKLHVLPWLADLQQRHPSMRIDLDLTERLTNPSVERLDAAIRIGKLKDSSLFAKQIGTQRWVICASPDYLRQRGHPSDLEDLRRLRLIDKLHDPHSMCWRRLVEKGHIDQIEAAFRCDDFEAMRQAALCGLGAAFLPDWVIAQDLAAGALIRLFDDPEGREDGIHLVRALPKMSAKLEVFHQALSNHLGQVRIGGCLPASR”, the entry is “failed”; as for “MNAATLVDTHAVDTALQEAFEAAPEGFALFDAEDRCVIWNARYGELWSKWGVTLAVGATFESLLLAGLAAGRFPEANGDRAAWLAHQLGRRKLDRIEEIREEFGEYLRFESRRTPAGGLITTCANLTNLRRREAQALAARSFLDTIVENTPAMLFVKDGDTGAFLLVNRAAENQLGVPRAELLGKSDYDFFPKEQADAFAADDRRVIASGKLVTIDEEPLDTPHNGRRWLQTRKIAIPGEDGRRHLLVICEDITERKAGAAALAEALQKAEAGSVAKSEFLANMSHEIRTPLNGVIGMAEVLSRTALDDAQREMMEVILNSGRALNLLLSDILDLSKIEAGGLELSRDPLDLREAITAAVAVFKAVAESKGLVFRLTFADDFHDHVLGDALRVRQIVANLTSNAVKFTTAGSVIIEARTLVAEDGRIDLTVSVQDTGEGFDEDSADRLFERFQQADGSVTRKVGGTGLGLPIARRLARLMDGEISCVAHPGEGATFVFEALFLADGQRTPALEHHHHHH”, “failed”; as for “MNAIGIVGTGAMGRGIAQIAAQAGLRVRLFDASPQAVEAARAALADTLARLAAKGRLTADQADAALARLMPAAALAELADCDLVVEAIVENLEAKRDLFRQLEAIVGPETILASNTSSLSITAIAAACRRPERVAGFHFFNPVPLMKVVEVIAGLRSAPAACDALAALAGRMGHAAVRCTDMPGFIVNHAGRGMNTEGLRVVQEGVTAFADVDAVMREQAGFRMGPFELMDLTGLDVSHPVMESIYRQFYDEPRYRPSRITAVRLAGGLLGRKTGEGFYRYADGQKPVPPEAAAPAARPKSVWVSRAHAAGHTAAQRLLLDLCVTPEDGAWPSAEALIVVTPRGLDATAAAVAEGLDGRRTVALDTLYPFAATRRRTLMTTPATDPAHRDAAHGLFAADGVPVTVIRDSGGFVAQRIVACIVNIACDIAQQRIATPADIDLAVTLGLGYPQGPLALGDTLGAGAVLEVLQNLTTLYGDPRYRPSPWLLRRARLGLSLLTPDA”, “failed”. Under “MNAKIIASLAFTSMFSLSTLLSPAHAEEQEKALNFGIISTESQQNLKPQWTPFLQDMEKKLGVKVNAFFAPDYAGIIQGMRFNKVDIAWYGNLSAMEAVDRANGQVFAQTVAADGSPGYWSVLIVNKDSPINNLNDLLAKRKDLTFGNGDPNSTSGFLVPGYYVFAKNNISASDFKRTVNAGHETNALAVANKQVDVATNNTENLDKLKTSAPEKLKELKVIWKSPLIPGDPIVWRKNLSETTKDKIYDFFMNYGKTPEEKAVLERLGWAPFRASSDLQLVPIRQLALFKEMQGVKSNKGLNEQDKLAKTTEIQAQLDDLDRLNNALSAMSSVSKAVQ” stands “failed”; under “MNAKSRPSRKLLKGAVIGPAQLMADQPFSVIRAVSRRSDRDHVGVLAAGVAFFSLLASFPALVTLITLYGLFTGPQEAVRQIAEAGVYLPRGVHDLLAEHLPRLAQASPGSLGLGAITSLLFSIWSASRGMGAMVDGVDIAYQVGDGRGFLRKSILVVGLTLAGLVVSAIALPLIVGLPALFDRLPLPLEIRWALALARWPLLFALVLGALAVLFRYAPDRENPRWRWVTPGALAAATLWILASGGLSLYVGLVSSYDQTYGTLAGVVVAMMWLYLASYAVLLGAEINAELEDRGMERIKKDQAAAKAAVARA”, “failed”; under “MNALALGAKSFPIFWHYWNPIWGYYLSRNVMRPISQFLPMWLAVLVTFLVSGALHDLAIALVKWQAMFFFTPWFGIMGVIVIASNKYGLSYGALPWIMRAMINLLFILSSFSLTELTQGLLRLSA”, “failed”.

“MNALKNLSLILLLSLAFTGCHNKSSKINDFNLLLYAPEYASGFDIKGAGGKESVLITVRNPWQGADSVTTWLFIVRNGEEVPEGFAGQVLKGDAKRIVAMSSTHIAMLDAIGEVRCITGVSGIDYISNPDIQARRDSIGDVGYEGNINYELLLSLDPDLVLLYGVNGASAMESKLEELDIPFMYVGDYLEESPLGKAEWMVVLSEVTGKREKGEKAFAAIPVRYNALKKKVADSTLGTPSVMLNVPYGDSWFMPSTQSYVARLITDAGGRYIYQKNTGNASIPIDLEEAYLLASDADMWLNVGMANSLDDLKASCPKFTDTRCFKNGEVYNNNARTNTAGGNDYYESAVVNPDIVLRDLVKIFHPELVQEECVYYKQLK”: the protein production result is reported as “failed”. As for “MNARLENLMQWLKEKNVEAAFLTSTPNVFYMTNIHCEPHERLLGMFVFQEKEPILICPKMEEGQARNAGWAHEIIGFTDTDRPWDMIAKAIKDRGINANAVAIEKEHLNVERYEELTKLFPNAAFTSAEEKVRELRLIKDEKELSILREAAKMADYAVEVGVNAIKEDRSELEVLAIIEHELKTEGIHKMSFDTMVLAGANSALPHGIPGANKMKRGDFVLFDLGVIIDGYCSDITRTVAFGDISEEQTRIYNTVLAGQLQAVEACKPGVTLGAIDNAARSVIADAGYGDFFPHRLGHGLGISVHEYPDVKAGNESPLKEGMVFTIEPGIYVPNVGGVRIEDDIYITKDGSEILTKFPKELQFVK”, the entry is “failed”. Turning to “MNATHEALAIRARPRPASAPSAVLTLAWRAMLKIKHVPFQLFDVTVTPIMFTLLFTFIFGGALAGSPRQYVQYLVPGVLVQTVLFITVYTGVGLNSDIRKGLYDRFRSLPMWQPAPLLGALAGDVFRYSVAGGVILVVGFILGFRPQGGAPGVLAAMALVLVFSFALSWLWIVVGMLVRTPESVMTTSFVFLMPLTFASDIFVGLGTMPGWLQGVVRHNPVTHLANASRDLMHGRPAGADVSWTLLASLVIVAAVAPLAMRLYRKER”, the protein production result was “failed”. In the case of “MNAYYLLAIAVCAEVIATTSMKAVKGLSTPLPLILLITGYAIAFWMLILVMRTIPVGITYAIWSGMGIVMVSVAAYFIYGQKLDLPALLGMGMIVAGVAVIQLFSKTAGH”, the protein production entry is given as “failed”. As to “MNCGRIRSLLQGGEATAGPVIYWMSRDQRVADNWALIHAQKLALARSAPLGVLFCLAPRFLGATARQYRFMLKGLEQVRAALNRLDIPFFLVTGDPKGAVAAFTRRHRVSYLVTDFDPLRVKREWKRQVAGEISIPFDEVDAHNIVPCWITSQRQEWGAYTIRPKIHRLLPDFMEPFPPLQRHPFPWQGALPSDAEWRETFTGMTLDESVPEVSWLASGEEAAQAALARFLEDGLAGYATRRNNPAVMGQSGLSPWLHFGQLSAQRVAQAAFAAAAPIESRDAFLEELIVRRELADNFCYYNDAYDRFDGFPEWAQRTLNRHRHDPRPQCYEHDVLEQGQTHDSLWNAAQLEMVRWGRMHGYLRMYWAKKLLEWTSSPEDALMIAIQLNDRYQLDGRDPNGYAGIAWSIGGVHDRPWAERPVFGTIRFMSRDGCRRKFDTDAYERRVIISPATCAGIALCK”, the protein production result is “failed”. Under “MNCIIAQSGGPTSVINASVYGLVKANKKLNLYENVYGGLNGIEGILNKKIINLSDLDELQLERFKNSPASGLGSCRYKLKPLSESEDEYLKLLDILNSLNIKAFFYVGGNDSMDTTAKLNAFAKAKNIDIKFFGIPKTIDNDLMHTDHTPGFGSAAKFISTAVLETYLDSKVYTNNGIFIIETMGRDTGWLAASGALATINGNKCADLVYLPERAFSVQSFLTDVARIFKEKKHVYIVASEGLKDENGKFLTETAPNDDSFGHAQLGGVGAYLKNLIIQASITHRVKSLELNTLQRCSMHASSKIDVNEAVMVGQAALEASINSEGGYMVAIRRDSSFPYKSSTFLIEADKIANNIKYFPSEWINEEGNNITEEGLLYLKPLISDFEDRDSLPLYHSFVL” stands “failed”; under “MNCKFEGSKVFFTSDTHFYHGNIIRFCNRPFKDVGMMNETIISNWNNTVGLDDIVFHLGDFCLGGSAEWTKILDRLNGKIYLILGNHDLKNLRQGYVDRFEHLAMQMHIEVNKQKIYLNHYPFLCFDGGYKDVWQLFGHVHTRNNNTGIDATRLQHLYPTQYDVGVDNNNFMPVSFAQVKTIIEKQIKQSKMEELEHHHHHH”, “not failed”; under “MNDADSLQDYQRVRQQAIRSLFEIVEGSSEGTVIVDREARIVWINQRYAQRFGLADPAQAIGRPCESVIPGSLLREVVGSGKPILLDMMDSAKDPLVVMRLPIHDDAGEVIGAIGFALLDELRSLSPLVTRYLSMQRELASTRSQLQARQAKYSFSHFVGTSPVSLEVKRRARRGAASEAPVLLLGETGTGKELLAHAIHSASPRAHKAFVSVNAAAIPESLLEAEFFGTAPGAFTGAERKGRPGKLQVAQGGTLFLDEIGDMPLALQGKLLRVLQEKEFEAVGSNEVIRSDIRLVAATSIDLQQAMREGRFRADLYYRLNVLPIEIPPLRQRLDDLPALCESILDSLDHGRLHELGGDALALLARHAWPGNVRELRNVLERALLLADQRLLDAAALGAALGPLQPLPELPRAADDRPVGDFQQAREAFERDLIGRALAQSAGNVVEAAKRLGLGRSTLYKKIVALGMRLDSGTRLEIETN”, “failed”. With “MNDFKGWETRSYLFLALMVGVQLVAFAINPSNWITLVGGLAGIICVNLIAQGKVSNYIFGLISAVIIGYFGLVTRVYAEVLLQSFYIIMDITGLYAWLRASEDGSGQVTEVKVLKGIQWLYAFFTWLLIGVAAYILLGFVNDAQQTLDAITFSVSATGMLLMIKRYQSQFVFWLLGNIFSILLWFRAGTHAGGDYAIFVMYCMYTFNSIFGMFNWLKIKNKMEKNR”, the protein production result is “failed”. As to “MNDHTAAIAAHFDQLAPNLDRWRRRNRTYYRDLEKLHRFWIPTGSRVLQVGSGLGDLLATVEPSFGIGIDVSPQAVAIAQQRHPQLQFHCLAAEELTPEAIGNPEPFDAIILTGVLSYLTDIQVVLEQLQAFCHPRTRLILGFHNFLWQPLLTAAEKVGQRSPQPPESWLGMQDVLNLLTLTGYEPIKQGLEHHHHHH”, the protein production result is listed as “not failed”. On to “MNDNYEVFAIKYATYQQRRRNENFLPADEHDAGLMPLDYYVWLLKSPARTILVDTGFNPPEAAARNREQSRCPIEALRLLDVAPDDIDDVIITHLHYDHAGNLEKIPRARFHIQDKEVEFATGRCMCHAPLRFAYSPADVSNFIHKLYAGRVVFHDGAGVVAPGVEVLHVGGHTKGLQAVRVMTQRGWVVLASDASHFYENLEAARPFPLVADVAEMLDGFERLVRAAGSPSHVVPGHDPAVMTRYPTHPRDPQGIALLHLPTLA”, for which the protein production result is given as “failed”.
